In patent publication US20150086562A1 (BIOATLA, published 2015):
Where a chain is given by its changes, count along the chain named.

B1: VM1000 (antibody, V domains shown)
VH: QVQLVQSGAEVKKPGASVKVSCKASGYVFTSYWLHWIRQSPSRGLEWLGYINPRNDYTEYNRIFKGRLTISKDTSKNQVVLTMTNMDPVDTATYYCARRGITTFYWGQG
VL: EIVLTQSPATLSLSPGERATLSCKSSQSVLYSAVEKNYLAWYQQKPGKAPKLLIYWASTRERGVPSRFSGSGSGTDFTFTISSLQPEDIATYYCKQYLSSWTFGQG
notes: Humanized antibody with human constant region; also called anti-CD22 Mab clone VM1000
B2: VM1004 (antibody, V domains shown)
VH: EVQLVQSGAEVKKPGATVKISCKVSGYVFTSYWLHWIRQSPSRGLEWLGYINPRNDYTEYNRIFKGRFVFSLDTSVSTAYLQICSLKAEDTAVYYCARRGITTFYWGQG
VL: B1 VL with V64I, S66D, F79L, S83R, Q85E, I89F, T91V
notes: Humanized antibody with human constant region; also called anti-CD22 Mab clone VM1004
B3: VM1002 (antibody, V domains shown)
VH: EVQLVQSGAEVKKPGESLRISCKGSGYVFTSYWLHWVRQAPGQGLEWMGYINPRNDYTEYNRIFKGRVTITADKSTSTAYMELSSLRSEDTAVYYCARRGITTFYWGQG
VL: B1 VL with K48Q, K51R, V64I, S66D, F79L, S83R, Q85E, I89F, T91V
notes: Humanized antibody with human constant region; also called anti-CD22 Mab clone VM1002
B4: VM1011 (antibody, V domains shown)
VH: QVQLQESGPGLVKPSQTLSLTCTVSGYVFTSYWLHWIRQPPGKGLEWIGYINPRNDYTEYNRIFKGRVTITADKSTSTAYMELSSLRSEDTAVYYCARRGITTFYWGQG
VL: B1 VL with K48Q, K51R, V64I, S66D, F79L, S83R, Q85E, I89F, T91V
notes: Humanized antibody with human constant region; also called anti-CD22 Mab clone VM1011
B5: VM1003 (antibody, V domains shown)
VH: B2 VH
VL: B1 VL with K48Q, K51R, V64I, S66D, F79L, S83R, Q85E, I89F, T91V
notes: Humanized antibody with human constant region; also called anti-CD22 Mab clone VM1003
B6: VM1001 (antibody, V domains shown)
VH: B1 VH
VL: B1 VL with K48Q, K51R, V64I, S66D, F79L, S83R, Q85E, I89F, T91V
notes: Humanized antibody with human constant region; also called anti-CD22 Mab clone VM1001
B7: VM1006 (antibody, V domains shown)
VH: B2 VH with E1Q, T17S, I20V, V24A
VL: DIQMTQSPSSLSASVGDRVTITCKSSQSVLYSAVEKNYLAWYQQKPGKAPKLLIYWASTRERGIPDRFSGSGSGTDFTLTISRLEPEDFAVYYCKQYLSSWTFGQG
notes: Humanized antibody with human constant region; also called anti-CD22 Mab clone VM1006
B8: VM1007 (antibody, V domains shown)
VH: B3 VH with E1Q, E16A, L18V, R19K, I20V, G24A, P41R, G44R, M48I
VL: B7 VL with D1A, M4L, I64V, D66S, L79F, R83S, P86A, F89A, V91T
notes: Humanized antibody with human constant region; also called anti-CD22 Mab clone VM1007

The binders below were run against T1, CD22 protein expressed on the surface of Daudi cells (human, UniProt P20273 20-847) (assay: cell-based or functional assay).
T1 sequence (looked up): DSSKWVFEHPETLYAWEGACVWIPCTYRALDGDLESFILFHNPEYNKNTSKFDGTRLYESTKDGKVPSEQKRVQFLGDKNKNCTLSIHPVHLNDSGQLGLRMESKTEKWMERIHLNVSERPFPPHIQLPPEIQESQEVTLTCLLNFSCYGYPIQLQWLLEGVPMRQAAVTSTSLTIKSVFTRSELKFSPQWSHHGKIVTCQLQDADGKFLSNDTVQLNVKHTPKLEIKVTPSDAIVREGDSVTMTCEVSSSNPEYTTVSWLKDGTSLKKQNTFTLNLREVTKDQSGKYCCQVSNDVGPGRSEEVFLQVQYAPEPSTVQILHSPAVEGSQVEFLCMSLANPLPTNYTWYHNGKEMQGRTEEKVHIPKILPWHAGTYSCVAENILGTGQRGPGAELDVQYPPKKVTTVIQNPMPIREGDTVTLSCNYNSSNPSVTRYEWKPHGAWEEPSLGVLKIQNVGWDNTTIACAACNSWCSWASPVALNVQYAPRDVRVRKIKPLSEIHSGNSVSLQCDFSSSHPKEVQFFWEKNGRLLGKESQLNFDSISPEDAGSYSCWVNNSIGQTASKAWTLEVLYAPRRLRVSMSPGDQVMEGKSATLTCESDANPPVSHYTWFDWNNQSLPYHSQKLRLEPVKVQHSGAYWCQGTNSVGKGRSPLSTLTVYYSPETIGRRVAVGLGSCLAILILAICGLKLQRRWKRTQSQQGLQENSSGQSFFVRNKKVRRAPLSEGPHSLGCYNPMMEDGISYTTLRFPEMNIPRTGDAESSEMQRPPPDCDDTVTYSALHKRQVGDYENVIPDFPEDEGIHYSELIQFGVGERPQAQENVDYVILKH
For B1, the “Daudi Internalization by FACS, % Shift” value was 85.9%. With B2 the “Daudi Internalization by FACS, % Shift” value was 87.1%. With B3 the “Daudi Internalization by FACS, % Shift” value was 84.6%. In the case of B4, the “Daudi Internalization by FACS, % Shift” value is reported as 87.1%. B5 was tested, and the “Daudi Internalization by FACS, % Shift” value was 70.8%. For B6, the “Daudi Internalization by FACS, % Shift” value was 86.4%. In the case of B7, the “Daudi Internalization by FACS, % Shift” value is reported as 88.3%. In the case of B8, the “Daudi Internalization by FACS, % Shift” value is reported as 85%.

What follows are binders tested against T1, CD22 protein expressed on the surface … (assay: Quantitative confocal immunofluorescence of directly FITC-labelled antibody (5 ug/ml, 45 min on ice) on Daudi cells. paragraph 243 calls these 'RMF surface binding values'.).
Procedure: Selected antiCD22 selected anti-CD22 Mab clones VM1000, VM1001, VM1002, VM1003, VM1004, VM1005, VM1006, VM1007, VM1008, VM1009, VM1010, VM1011, VM1012, VM1013, VM1014, and VM1015 of the invention were directly conjugated to F1TC using the Zenon labeling complex (Molecular Probes) using the manufacturer's recommended procedures. Approximately 1×10e7 Daudi cells were resuspended in PBS containing 5 ug/ml labeled anti-CD22 antibody and incubated for 45 minutes on ice. Cells then washed twice in PBS-FBS solution at 0 C. Cells were then incubated in RPMI 1640 media containing 10% FBS for varying periods at 37 C, harvested and washed in PBS at 0 C. The cells were then briefly fixed in 4% paraformaldehyde solution for 5 min at room temperature, then washed in PBS containing 0.05% Triton X-100. Cell pellets were collected by centrifugation and resupended in a minimal volume of FBS neat, and then applied to glass microscope slides. Prior to analysis, slides were treated with mounting fluid containing the nuclear stain DAPI, then coverslips were applied. Confocal images were recorded using an ACAS Ultima confocal microscope (Meridian Instruments, Inc., Okemos, Mich.) and represent 1-μm sections through the center of a focal plane using a 100× oil immersion objective.
The Anti-CD22 monoclonal antibodies selected clones VM1000, VM1001, VM1002, VM1003, VM1004, VM1005, VM1006, VM1007, VM1008, VM1009, VM1010, VM1011, VM1012, VM1013, VM1014, and VM1015 of the invention were analysed for their ability to be rapidly internalized into the intracellular compartment as judged by immunoflourescent signal on the cell surface versus the intracellular endo cytotic compartment. The antibodies of the invention were compared to BA006H, and humanized version of the murine monoclonal antibody LL2. In this example, FIG. 21A, the anti-CD22 antibodies of the invention bind to CD22 protein expressed on the surface of Daudi cells by approximately 20-fold compared to BA006H as judged by relative mean fluorescence (RMF), and are virtually completely internalized within the cell with 90 minutes, localizing predominantly to within the perinuclear golgi apparatus and associated lysozomes. Shown in FIG. 21B is a chart of the RMF surface binding values obtained in this manner for individual anti-CD22 antibodies of the invention.
B1 was tested, and the “RMF (Daudi Internalization by Confocal)” value was about 100 RMF. B2 was tested, and the “RMF (Daudi Internalization by Confocal)” value was about 100 RMF. For B3, the “RMF (Daudi Internalization by Confocal)” value was about 150 RMF. With B4 the “RMF (Daudi Internalization by Confocal)” value was about 200 RMF. In the case of B5, the “RMF (Daudi Internalization by Confocal)” value is reported as about 150 RMF. B6 was tested, and the “RMF (Daudi Internalization by Confocal)” value was about 100 RMF. With B7 the “RMF (Daudi Internalization by Confocal)” value was about 200 RMF. For B8, the “RMF (Daudi Internalization by Confocal)” value was about 200 RMF.
